From patent US20150140573A1

Assays:
[1] = target: barley limit dextrinase present in barley malt extract (barley (Hordeum vulgare subsp. vulgare)); assay: cell-based or functional assay; conditions: scale: fraction of the rate of the uninhibited sample
[2] = target: recombinant barley limit dextrinase inhibitor

Molecule	rate of o-NP release from compound 6 in barley malt extract (absorbance at 430 nm), with and without added limit dextrinase inhibitor [1]	hydrolysis of compound 19 in barley malt extract after 1 h at 60 C (UPLC, fluorescence detection), with and without added LDI [2]
recombinant barley limit dextrinase inhibitor	0.1	–
barley limit dextrinase present in barley malt extract (protein) MAVGETGASVSAAEAEAEATQAFMPDARAYWVTSDLIAWNVGELEAQSVCLYASRAAAMSLSPSNGGIQGYDSKVELQPESAGLPETVTQKFPFISSYRAFKVPSSVDVASLVKCQLVVASFGADGKHVDVTGLQLPGVLDDMFAYTGPLGAVFSEDSVSLHLWAPTAQGVSVCFFDGPAGPALETVQLKESNGVWSVTGPREWENRYYLYEVDVYHPTKAQVLKCLAGDPYARSLSANGARTWLVDINNETLKPASWDELADEKPKLDSFSDITIYELHIRDFSAHDGTVDSDSRGGFRAFAYQASAGMEHLRKLSDAGLTHVHLLPSFHFAGVDDIKSNWKFVDECELATFPPGSDMQQAAVVAIQEEDPYNWGYNPVLWGVPKGSYASDPDGPSRIIEYRQMVQALNRIGLRVVMDVVYNHLDSSGPCGISSVLDKIVPGYYVRRDTNGQIENSAAMNNTASEHFMVDRLIVDDLLNWAVNYKVDGFRFDLMGHIMKRTMVTKSALQSLTTDAHGVDGSKIYLYGEGWDFAEVARNQRGINGSQLNMSGTGIGSFNDRIRDAINGGNPFGNPLQQGFNTGLFLEPNGFYQGNEADTRRSLATYADQIQIGLAGNLRDYVLISHTGEAKKGSEIHTFDGLPVGYTASPIETINYVSAHDNETLFDVISVKTPMILSVDERCRINHLASSMMALSQGIPFFHAGDEILRSKSIDRDSYNSGDWFNKLDFTYETNNWGVGLPPSEKNEDNWPLMKPRLENPSFKPAKGHILAALDSFVDILKIRYSSPLFRLSTANDIKQRVRFHNTGPSLVPGVIVMGIEDARGESPEMAQLDTNFSYVVTVFNVCPHEVSMDIPALASMGFELHPVQVNSSDTLVRKSAYEAATGRFTVPGRTVSVFVEPRC	–	When LDI was added to the extract, almost all activity of limit dextrinase was inhibited, and only negligible amounts of the compound 19 was hydrolyzed
